Target: the molecule itself
Assay: crystal structure; AtGSTF2 (10 mg/mL) co-crystallised with small-molecule ligands 1-4 (5 or 10 mM); four structures at 2.00-2.77 Å; dimers in the asymmetric unit

B1: Arabidopsis thaliana phi class glutathione transferase AtGSTF2 (enzyme)
chain: MAGIKVFGHPASIATRRVLIALHEKNLDFELVHVELKDGEHKKEPFLSRNPFGQVPAFEDGDLKLFESRAITQYIAHRYENQGTNLLQTDSKNISQYAIMAIGMQVEDHQFDPVASKLAFEQIFKSIYGLTTDEAVVAEEEAKLAKVLDVYEARLKEFKYLAGETFTLTDLHHIPAIQYLLGTPTKKLFTERPRVNEWVAEITKRPASEKVQ
notes: AtGSTF2, phi class glutathione transferase of Arabidopsis thaliana; no tag is named, and the protein was purified on GSH sepharose; also called phi class GST; source: E. coli Tuner (DE3) with pRARE, purified (GSH sepharose 4B, S75 Superdex gel filtration)
Q: Which “stoichiometry N” value does the source give for B1 here?
A: 2

Reference: PMC5292665, “Structural evidence for Arabidopsis glutathione transferase AtGSTF2 functioning as a transporter of small organic ligands” (FEBS Open Bio, 2016)
